Data from patent US20230322953A1 (HARBOUR BIOMED SHANGHAI, published 2023).

Tests used:
[1] = molecular target: T1, human CTLA4 on cells (CHO-K1/hCTLA4; HEK293/hCTLA4; 293F-hCTLA4) (human, UniProt P16410 36-223); test: competition FACS: biotinylated B7-1-Fc to CHO-K1/hCTLA4 cells
T1 construct: whole, on cells

[2] = molecular target: T2, human CTLA4-His protein (ACRO Biosystems, #CT4-H5229) (human, UniProt P16410 36-161); test: ELISA, coated hCTLA4-His
T2 construct: extracellular domain; bought; also called hCTLA4-His; human CTLA4 extracellular domain recombinant protein

[3] = molecular target: T3, human PD-L1-His protein (ACRO Biosystems, #PD1-H5229) (human, UniProt Q9NZQ7 19-238); test: ELISA, coated hPD-L1-His
T3 construct: extracellular domain; bought; also called hPDL1-His; human PD-L1 extracellular domain recombinant protein

[4] = molecular target: T1, human CTLA4 on cells (CHO-K1/hCTLA4; …); test: FACS, CHO-K1/hCTLA4 cells (Test 1)
[5] = molecular target: T4, human PD-L1 on cells (CHO-K1/hPDL1; MDA-MB-231) (human, UniProt Q9NZQ7 19-290); test: FACS, CHO-K1/hPDL1 cells (Experiment 1)
T4 construct: whole, on cells

[6] = molecular target: T5, biotinylated human CTLA4-Fc protein (ACRO Biosystems, #CT4-H82F3) (human, UniProt P16410 36-161, biotinylated); test: competition ELISA: biotinylated hCTLA4-Fc to coated B7-1-Fc
T5 construct: bought; also called human CTLA4 protein

[7] = molecular target: T5, biotinylated human CTLA4-Fc protein …; test: as above; remark: listed apart in the source
[8] = molecular target: T1, human CTLA4 on cells (CHO-K1/hCTLA4; …); test: competition FACS: biotinylated B7-1-Fc to CHO-K1/hCTLA4 cells (Test 1)
[9] = molecular target: T4, human PD-L1 on cells (CHO-K1/hPDL1; …); test: competition FACS: biotinylated PD-1 to CHO-K1/hPDL1 cells (Experiment 1)
[10] = molecular target: T6, cynomolgus monkey BCMA (ACRO Biosystems, #BCA-C82F4) (cynomolgus monkey, UniProt A0A2K5UD97 1-53); test: BLI, Octet Red96e
T6 construct: bought; also called cyBCMA.Fc

[11] = molecular target: T7, cynomolgus monkey BCMA on cells (HEK293T/cyno BCMA) (cynomolgus monkey, UniProt A0A2K5UD97 1-183); test: FACS, HEK293T/cyno BCMA cells
T7 construct: whole, on cells

[12] = molecular target: T8, human CTLA4 on CHO-K1/hCTLA4 cells (human, UniProt P16410 36-223); test: flow cytometry on CHO-K1/hCTLA4 cells, Experiment 1
T8 construct: whole, on cells; CHO-K1 cell line highly expressing human CTLA4; also called human CTLA4 cell

[13] = molecular target: T8, human CTLA4 on CHO-K1/hCTLA4 cells; test: flow cytometry on CHO-K1/hCTLA4 cells, Experiment 2
[14] = molecular target: T8, human CTLA4 on CHO-K1/hCTLA4 cells; test: flow cytometry on CHO-K1/hCTLA4 cells, Experiment 3
[15] = molecular target: T9, biotinylated human CTLA4-Fc protein (ACRO Biosystems, #CT4-H82F3) (human, UniProt P16410 36-161, biotinylated); test: competition ELISA: coated human B7-1-Fc, biotinylated human CTLA4-Fc, Experiment 1
T9 construct: Bought protein; also called human CTLA4 protein

[16] = molecular target: T9, biotinylated human CTLA4-Fc protein …; test: competition ELISA: coated human B7-1-Fc, biotinylated human CTLA4-Fc, Experiment 2
[17] = molecular target: T8, human CTLA4 on CHO-K1/hCTLA4 cells; test: flow cytometry competition: biotinylated human B7-1-Fc on CHO-K1/hCTLA4 cells, Experiment 1
[18] = molecular target: T8, human CTLA4 on CHO-K1/hCTLA4 cells; test: flow cytometry competition: biotinylated human B7-1-Fc on CHO-K1/hCTLA4 cells, Experiment 2
[19] = molecular target: T2, human CTLA4-His protein (ACRO …); test: ELISA, coated hCTLA4-His; remark: listed apart in the source

EC50 [2] | Maximum OD450 [2] | EC50 [3] | Maximum OD450 [3] | EC50 [4] | Maximum MFI [4] | EC50 [5] | Maximum MFI [5] | IC50 [7] | Maximum inhibition rate (%) [7] | IC50 [8] | Maximum inhibition rate (%) [8] | IC50 [9] | Maximum inhibition rate (%) [9] | other results | Binder
 |  |  |  |  |  |  |  |  |  |  |  |  |  | fold poorer IC50 than the parent monoclonal antibody [1]: ~4 fold | PR002672 (bispecific antibody, HER2×CTLA4, structure 18 Fab(cross Fd/LC)-Fc-VH-VH) chain 1: not shown chain 2: not shown chain 3: EVQLVESGGGLIQPGGSLRLSCAVSGFTVSKNYMSWVRQAPGKGLEWVSVVYSGGSKTYADSVKGRFTISRDNSKNTLYLQMNSLRAEDTAVYYCARAVPHSPSSFDIWGQGTMVTVSSGGGGSEVQLVESGGGLIQPGGSLRLSCAVSGFTVSKNYMSWVRQAPGKGLEWVSVVYSGGSKTYADSVKGRFTISRDNSKNTLYLQMNSLRAEDTAVYYCARAVPHSPSSFDIWGQGTMVTVSSEPKSSDKTHTCPPCPAPELLGGPDVFLFPPKPKDTLMISRTPEVTCVVVDVSHEDPEVKFNWYVDGVEVHNAKTKPREEQYNSTYRVVSVLTVLHQDWLNGKEYKCKVSNKALPAPEEKTISKAKGQPREPQVCTLPPSREEMTKNQVSLSCAVKGFYPSDIAVEWESNGQPENNYKTTPPVLDSDGSFFLVSKLTVDKSRWQQGNVFSCSVMHEALHNHYTQKSLSLSPGK
10.6 nM | 3.55 OD450 | 0.152 nM | 3.54 OD450 | 26.1 nM | 1570 MFI | 0.737 nM | 18600 MFI | 11.6 nM | 98.9% | 71.2 nM | 49% | 0.64 nM | 96.7% | fold weaker IC50 than PR000184 [6]: 4 fold | PR000302 (bispecific antibody, human IgG1, kappa) DIQMTQSPSTLSASVGDRVTVTCRASQSIYIWLAWYQQKPGKAPNLLIYKASSLETGVPSRFSGSGSGTEFTLTISSLQPDDFATYYCQQYYGSSRTFGQGTKVEIKRTVAAPSVFIFPPSDEQLKSGTASVVCLLNNFYPREAKVQWKVDNALQSGNSQESVTEQDSKDSTYSLSSTLTLSKADYEKHKVYACEVTHQGLSSPVTKSFNRGECEPKSSDKTHTPPPPPEVQLVESGGGLIQPGGSLRLSCAVSGFTVSKNYMSWVRQAPGKGLEWVSVVYSGGSKTYADSVKGRFTISRDNSKNTLYLQMNSLRAEDTAVYYCARAVPHSPSSFDIWGQGTMVTVSS heavy: not shown
 |  |  |  |  |  |  |  |  |  |  |  |  |  | binding result [10]: no binding; binding result [11]: no binding | PR002199, BCMA×CD3 bispecific antibody derived from WO2019133761A1 (bispecific antibody, human IgG1, kappa, L234A L235A, also called positive control 2) chain 1: not shown chain 2: EVQLVESGGGLVQPGRSLRLSCAASGFTFDDYAMHWVRQAPGKGLEWVSGISWNSGSIGYADSVKGRFTISRDNAKNSLYLQMNSLRAEDTALYYCAKDSRGYGDYRLGGAYWGQGTLVTVSSASTKGPSVFPLAPSSKSTSGGTAALGCLVKDYFPEPVTVSWNSGALTSGVHTFPAVLQSSGLYSLSSVVTVPSSSLGTQTYICNVNHKPSNTKVDKKVEPKSCDKTHTCPPCPAPEAAGGPSVFLFPPKPKDTLMISRTPEVTCVVVDVSHEDPEVKFNWYVDGVEVHNAKTKPREEQYNSTYRVVSVLTVLHQDWLNGKEYKCKVSNKALGAPIEKTISKAKGQPREPQVYTLPPCREEMTKNQVSLWCLVKGFYPSDIAVEWESNGQPENNYKTTPPVLDSDGSFFLYSKLTVDKSRWQQGNVFSCSVMHEALHNHYTQKSLSLSPGK chain 3: EVQLLESGGGLVQPGGSLRLSCAASGFTVSSYGMSWVRQAPGKGPEWVSGIRGSDGSTYYADSVKGRFTISRDNSKNTLYLQMNSLRAEDTAVYYCAKQGENDGPFDHRGQGTLVTVSSGGGGSEVQLLESGGGLVQPGGSLRLSCAASGFTVSSYGMSWVRQAPGKGPEWVSGIRGSDGSTYYADSVKGRFTISRDNSKNTLYLQMNSLRAEDTAVYYCAKQGENDGPFDHRGQGTLVTVSSASEPKSSDKTHTCPPCPAPEAAGGPSVFLFPPKPKDTLMISRTPEVTCVVVDVSHEDPEVKFNWYVDGVEVHNAKTKPREEQYNSTYRVVSVLTVLHQDWLNGKEYKCKVSNKALGAPIEKTISKAKGQPREPQVCTLPPSREEMTKNQVSLSCAVKGFYPSDIAVEWESNGQPENNYKTTPPVLDSDGSFFLVSKLTVDKSRWQQGNVFSCSVMHEALHNHYTQKSLSLSPGK
 |  |  |  |  |  |  |  |  |  |  |  |  |  | EC50 [12]: 1.59 nM; Maximum MFI [12]: 214 MFI; EC50 [13]: 1.79 nM; Maximum MFI [13]: 1080 MFI; EC50 [14]: 3.05 nM; IC50 [15]: 2.46 nM; IC50 [16]: 1.69 nM; IC50 [17]: 1.69 nM; Maximum inhibition rate [17]: 99.6%; IC50 [18]: 0.239 nM | Anti-CTLA4 heavy-chain antibody CL5v3, hIgG1 (antibody, V domains shown, Heavy-chain-only antibody (HCAb), no light chain; parent of the CTLA4 end of the HER2xCTLA4 bispecifics; also called PR000184) VH: EVQLVESGGGLIQPGGSLRLSCAVSGFTVSKNYMSWVRQAPGKGLEWVSVVYSGGSKTYADSVKGRFTISRDNSKNTLYLQMNSLRAEDTAVYYCARAVPHSPSSFDIWGQGTMVTVSS
1.57 nM | 2.72 OD450 | 0.241 nM | 3.52 OD450 | 4.36 nM | 2040 MFI | 0.848 nM | 18000 MFI | 4.12 nM | 97.3% | 9.71 nM | 83.3% | 0.695 nM | 95.9% | fold poorer EC50 than PR000184 [19]: 2.6 fold | PR000303 (bispecific antibody, human IgG1, kappa) light: DIQMTQSPSTLSASVGDRVTVTCRASQSIYIWLAWYQQKPGKAPNLLIYKASSLETGVPSRFSGSGSGTEFTLTISSLQPDDFATYYCQQYYGSSRTFGQGTKVEIKRTVAAPSVFIFPPSDEQLKSGTASVVCLLNNFYPREAKVQWKVDNALQSGNSQESVTEQDSKDSTYSLSSTLTLSKADYEKHKVYACEVTHQGLSSPVTKSFNRGEC not shown
